# From the supplement of paper PMC10724198
# ± gives the standard deviation of the averaged measurements.
# Assays:
# Saccharomyces cerevisiae [1] = assay: protein stability index of tFT-peptide fusion (C-terminal peptide) (PSI (0-1 scale)); higher = more stable (slower turnover)
# Procedure: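 MPS profiling in S. cerevisiae of the tFT-X12 degron library: putative degron peptides plus stable controls, 12 aa, fused to the C-terminus of a sfGFP-mCherry timer. Cells are FACS-sorted into 8 mCherry/sfGFP bins and deep-sequenced. PSI runs from 0 (unstable) to 1 (stable). Backgrounds are wild type, das1Δ and doa10Δ at 30 °C, and wild type, das1Δ, cdc34-1 and cdc53-1 at 37 °C; 2-3 technical replicates each.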
# Saccharomyces cerevisiae [2] = assay: as above; conditions: genetic background: wild type; temperature: 30 C
# [3] = genetic background: cdc34-1, temperature: 37 C
# [4] = genetic background: cdc53-1, temperature: 37 C
# [5] = genetic background: das1 deletion, temperature: 30 C
# [6] = genetic background: das1 deletion, temperature: 37 C
# [7] = genetic background: doa10 deletion, temperature: 30 C
# [8] = genetic background: wild type, temperature: 30 C
# [9] = genetic background: wild type, temperature: 37 C
# 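Note: PSI is a weighted mean of sequencing reads over stability bins, variants kept only with over 10 reads, mCherry proximal and sfGFP distal, peptide attached via GGGS linker.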
Sequence,protein stability index (Saccharomyces cerevisiae [1]; [3]),protein stability index (Saccharomyces cerevisiae [1]; [4]),protein stability index (Saccharomyces cerevisiae [1]; [5]),protein stability index (Saccharomyces cerevisiae [1]; [6]),protein stability index (Saccharomyces cerevisiae [1]; [7]),protein stability index (Saccharomyces cerevisiae [1]; [8]),protein stability index (Saccharomyces cerevisiae [1]; [9]),protein stability index (Saccharomyces cerevisiae [2])
CLFSVLFPLFFR,0.0858 ± 0.049,0.0347 ± 0.0022,0.137 ± 0.042,0.158 ± 0.016,0.6444 ± 0.0064,0.142 ± 0.0055,0.184 ± 0.073,0.214 ± 0.039
ESRRGILFIYIN,0.325 ± 0.049,0.601 ± 0.027,0.475 ± 0.025,0.647 ± 0.038,0.0808 ± 0.028,0.0867 ± 0.0055,0.0749 ± 0.024,0.13 ± 0.005
VVFVGRSIVVLT,0.508 ± 0.019,0.525 ± 0.014,0.358 ± 0.038,0.567 ± 0.019,0.336 ± 0.037,0.371 ± 0.03,0.519 ± 0.019,0.419 ± 0.047
TVWRRIRHACAH,0.597 ± 0.023,0.683 ± 0.0099,0.596 ± 0.013,0.702 ± 0.035,0.193 ± 0.0082,0.226 ± 0.015,0.365 ± 0.0047,0.376 ± 0.038
GYRRCCHFLFTL,0.671 ± 0.02,0.735 ± 0.035,0.622 ± 0.023,0.747 ± 0.00099,0.359 ± 0.023,0.375 ± 0.029,0.56 ± 0.0064,0.423 ± 0.034
GCFVDRVYVVVV,0.52605 ± 0.00036,0.543 ± 0.043,0.381 ± 0.026,0.546 ± 0.016,0.366 ± 0.014,0.387 ± 0.022,0.522 ± 0.0064,0.4763 ± 0.00091
SVIAYTKPLWFR,0.4205 ± 0.0039,0.3736 ± 0.0027,0.351 ± 0.032,0.498 ± 0.009,0.658 ± 0.02,0.361 ± 0.016,0.486 ± 0.013,0.475 ± 0.0065
VQLFCLRREMII,0.544 ± 0.025,0.609 ± 0.009,0.503 ± 0.027,0.583 ± 0.043,0.335 ± 0.0084,0.365 ± 0.019,0.506 ± 0.013,0.381 ± 0.0047
RMTFFGFTVKML,0.641 ± 0.025,0.7448 ± 0.0058,0.619 ± 0.0095,0.75 ± 0.011,0.196 ± 0.036,0.264 ± 0.03,0.537 ± 0.01,0.407 ± 0.031
SFYAGLVVGGVG,0.582 ± 0.038,0.616 ± 0.014,0.508 ± 0.026,0.6 ± 0.0064,0.525 ± 0.001,0.5 ± 0.018,0.5813 ± 0.0037,0.528 ± 0.053
GLDLLTKFSKEC,0.678 ± 0.049,0.734 ± 0.036,0.617 ± 0.02,0.741 ± 0.015,0.291 ± 0.027,0.33 ± 0.015,0.585 ± 0.011,0.465 ± 0.034
LAGSSSIVVVFG,0.445 ± 0.00068,0.469 ± 0.04,0.299 ± 0.038,0.527 ± 0.0056,0.2496 ± 0.0021,0.297 ± 0.049,0.496 ± 0.026,0.406 ± 0.018
GSLVLSCLMSRA,0.558 ± 0.04,0.603 ± 0.018,0.42 ± 0.034,0.573 ± 0.0029,0.431 ± 0.037,0.438 ± 0.012,0.537 ± 0.02,0.4872 ± 0.00045
RRRNQAAHLYSH,0.617 ± 0.024,0.694 ± 0.044,0.67 ± 0.023,0.708 ± 0.0077,0.139 ± 0.022,0.159 ± 0.024,0.348 ± 0.011,0.268 ± 0.013
RVLSLLGCFVVF,0.501 ± 0.03,0.486 ± 0.013,0.448 ± 0.028,0.585 ± 0.018,0.485 ± 0.017,0.429 ± 0.013,0.558 ± 0.026,0.4651 ± 0.0023
FSCLCLCVATSG,0.348 ± 0.031,0.396 ± 0.056,0.221 ± 0.019,0.379 ± 0.015,0.237 ± 0.031,0.219 ± 0.023,0.355 ± 0.03,0.23 ± 0.013
ALPLRSNILSVF,0.446 ± 0.019,0.489 ± 0.037,0.344 ± 0.031,0.506 ± 0.0091,0.242 ± 0.01,0.283 ± 0.023,0.45 ± 0.011,0.3795 ± 0.0028

Sequence,protein stability index (Saccharomyces cerevisiae [1]; [3]),protein stability index (Saccharomyces cerevisiae [1]; [4]),protein stability index (Saccharomyces cerevisiae [1]; [5]),protein stability index (Saccharomyces cerevisiae [1]; [6]),protein stability index (Saccharomyces cerevisiae [1]; [7]),protein stability index (Saccharomyces cerevisiae [1]; [8]),protein stability index (Saccharomyces cerevisiae [1]; [9]),protein stability index (Saccharomyces cerevisiae [2])
WFSAGSCRWVLC,0.58 ± 0.061,0.71 ± 0.023,0.543 ± 0.012,0.709 ± 0.013,0.126 ± 0.0071,0.1431 ± 0.00041,0.321 ± 0.027,0.24 ± 0.0076
FMCFVLPVFVLV,0.247 ± 0.013,0.282 ± 0.034,0.222 ± 0.029,0.389 ± 0.0074,0.196 ± 0.018,0.212 ± 0.017,0.344 ± 0.014,0.306 ± 0.024
GGGGLRVVVWLV,0.534 ± 0.032,0.647 ± 0.022,0.501 ± 0.021,0.6625 ± 0.0052,0.111 ± 0.011,0.124 ± 0.018,0.15 ± 0.01,0.211 ± 0.049
WTRAHWFFQFFV,0.334 ± 0.061,0.677 ± 0.051,0.667 ± 0.018,0.739 ± 0.015,0.0772 ± 0.00094,0.0685 ± 0.0097,0.0858 ± 0.015,0.171 ± 0.0033
HRPRPLLKLLAS,–,0.596 ± 0.098,0.585 ± 0.083,0.67983 ± 0.0006,0.0522 ± 0.045,0.0779 ± 0.044,0.0284 ± 0.018,0.145 ± 0.011
FLVFRPPALFLR,0.0932 ± 0.018,0.0985 ± 0.0088,0.198 ± 0.024,0.268 ± 0.013,0.611 ± 0.01,0.22 ± 0.017,0.219 ± 0.0054,0.218 ± 0.18
FLVVCGLLSWVW,0.324 ± 0.00073,0.407 ± 0.029,0.263 ± 0.039,0.455 ± 0.015,0.232 ± 0.0053,0.28 ± 0.032,0.4291 ± 0.003,0.348 ± 0.05
CRHCFVLLYFDY,0.304 ± 0.026,0.304 ± 0.013,0.321 ± 0.033,0.384 ± 0.0093,0.421 ± 0.017,0.318 ± 0.023,0.374 ± 0.0097,0.349 ± 0.00063
ATLWVWCFSSHV,0.601 ± 0.047,0.6418 ± 0.003,0.469 ± 0.019,0.62 ± 0.013,0.438 ± 0.023,0.447 ± 0.021,0.5991 ± 0.0014,0.497 ± 0.078
IFRVTGFPIYIF,0.327 ± 0.045,0.36 ± 0.024,0.339 ± 0.021,0.4535 ± 0.0037,0.222 ± 0.014,0.233 ± 0.025,0.3522 ± 0.0011,0.297 ± 0.012
IFLCRNGAVFIC,0.398 ± 0.07,0.7987 ± 0.0065,0.733 ± 0.016,0.872 ± 0.019,0.0808 ± 0.021,0.0798 ± 0.016,0.0995 ± 0.012,0.158 ± 0.015
SYVRLDLFFFLG,0.517 ± 0.069,0.591 ± 0.03,0.491 ± 0.012,0.5727 ± 0.0048,0.46 ± 0.038,0.472 ± 0.026,0.5357 ± 0.0037,0.568 ± 0.11
EKTKRGLIQRVV,0.68 ± 0.064,0.721 ± 0.012,0.641 ± 0.021,0.693 ± 0.015,0.247 ± 0.016,0.293 ± 0.046,0.554 ± 0.025,0.3931 ± 0.0028
EWVWVVFSCVSW,0.303 ± 0.027,0.429 ± 0.0099,0.307 ± 0.029,0.435 ± 0.012,0.2932 ± 0.0027,0.32 ± 0.012,0.432 ± 0.024,0.3472 ± 0.0015
RLICFFSMYLRF,0.239 ± 0.024,0.17 ± 0.064,0.367 ± 0.058,0.395 ± 0.006,0.614 ± 0.029,0.355 ± 0.026,0.369 ± 0.022,0.334 ± 0.14
VLYSRFPPPLIA,0.51169 ± 7.2e-05,0.537 ± 0.0073,0.43 ± 0.022,0.554 ± 0.02,0.396 ± 0.0062,0.415 ± 0.023,0.5375 ± 0.0029,0.4803 ± 0.0032
